{
  "source": "patent US8829175B2",
  "about": "“Nucleic acids encoding polyvalent protein complexes” (IBC Pharmaceuticals, Inc., priority 2003, dated 2014)",
  "molecules": {"B1": {"name": "hBS14: bispecific trivalent heterodimer (hMN-14×hMN-14×679) expressed in myeloma cells, SEQ ID NO:11 and 12 (antibody)", "heavy": "MEVQLVESGGDLVKPGGSLKLSCAASGFTFSIYTMSWLRQTPGKGLEWVATLSGDGDDIYYPDSVKGRFTISRDNAKNSLYLQMNSLRAEDTALYYCARVRLGDWDFDVWGQGTTVSVSSGGGGSDIQLTQSPSSLSASVGDRVTITCKASQDVGTSVAWYQQKPGKAPKLLIYWTSTRHTGVPSRFSGSGSGTDFTFTISSLQPEDIATYYCQQYSLYRSFGQGTKVEIKRLEGGGSEVQLVESGGGVVQPGRSLRLSCSASGFDFTTYWMSWVRQAPGKGLEWIGEIHPDSSTINYAPSLKDRFTISRDNAKNTLFLQMDSLRPEDTGVYFCASLYFGFPWFAYWGQGTPVTVSVDHHHHHH", "light": "MDIQLTQSPSSLSASVGDRVTITCKASQDVGTSVAWYQQKPGKAPKLLIYWTSTRHTGVPSRFSGSGSGTDFTFTISSLQPEDIATYYCQQYSLYRSFGQGTKVEIKRGGGQFMEVQLVESGGGVVQPGRSLRLSCSASGFDFTTYWMSWVRQAPGKGLEWIGEIHPDSSTINYAPSLKDRFTISRDNAKNTLFLQMDSLRPEDTGVYFCASLYFGFPWFAYWGQGTPVTVSGGGGSDIVMTQSPSSLAVSPGERVTLTCKSSQSLFNSRTRKNYLGWYQQKPGQSPKLLIYWASTRESGVPDRFSGSGSGTDFTLTINSLQAEDVAVYYCTQVYYLCTFGAGTKLELKRLDHHHHHH"}},
  "key": {"[1]": {"experiment": "BIAcore binding to HSG immobilized on a sensorchip", "description": "If the W12 binding is allowed to approach saturation, the stoichiometry of the binding can be determined. The additional increase in RU resulting from W12 binding was compared to the initial RU increase of the hBS14 upon binding to the HSG-sensorchip. As each increase in RU level is directly proportional to the mass bound, the WI2:bsAb molar binding ratio can be calculated using the formula (RUWI2/RUhBS14)×(MWhBS14/MWWI2). hBS14 was designed to be bivalent for CEA (and monovalent for HSG) and as such should bind W12 (also bivalent) with a 1:1 molar ratio. […] When equal concentrations of hBS14 were bound to an HSG-sensorchip, BIAcore sensorgrams are indistinguishable between lots derived from either SP2/0 or YB2/0 cells (FIG. 17)."}, "[2]": {"system": "human colonic tumor (GW-39) xenograft", "experiment": "Imaging of mice pre-targeted with hBS14 followed by 99mTc-IMP-245", "assay_type": "in vivo, nude mice", "experimental": "The experiment used 3 groups of 15 mice, each of which was necropsied, and 1 group of 5 mice that was imaged. Three groups of mice were administered 6 μCi ^125I-hBS14 (40 μg, 5.0×10^−10 moles). In the last group (imaging group), 3 mice received unlabeled hBS14. The amount of ^99mTc-IMP-245 administered to all the mice was ˜40 μCi (92 ng, 5.0×10^−11 moles) for a bispecific:peptide ratio of 10:1.\nAnimals 1 & 2 were given peptide only, while animals 3, 4, & 5 were administered hBS14 followed by peptide."}, "CEA": {"target": "T1, CEA (Homo sapiens, UniProt P06731)", "T1 sequence (P06731 35-676)": "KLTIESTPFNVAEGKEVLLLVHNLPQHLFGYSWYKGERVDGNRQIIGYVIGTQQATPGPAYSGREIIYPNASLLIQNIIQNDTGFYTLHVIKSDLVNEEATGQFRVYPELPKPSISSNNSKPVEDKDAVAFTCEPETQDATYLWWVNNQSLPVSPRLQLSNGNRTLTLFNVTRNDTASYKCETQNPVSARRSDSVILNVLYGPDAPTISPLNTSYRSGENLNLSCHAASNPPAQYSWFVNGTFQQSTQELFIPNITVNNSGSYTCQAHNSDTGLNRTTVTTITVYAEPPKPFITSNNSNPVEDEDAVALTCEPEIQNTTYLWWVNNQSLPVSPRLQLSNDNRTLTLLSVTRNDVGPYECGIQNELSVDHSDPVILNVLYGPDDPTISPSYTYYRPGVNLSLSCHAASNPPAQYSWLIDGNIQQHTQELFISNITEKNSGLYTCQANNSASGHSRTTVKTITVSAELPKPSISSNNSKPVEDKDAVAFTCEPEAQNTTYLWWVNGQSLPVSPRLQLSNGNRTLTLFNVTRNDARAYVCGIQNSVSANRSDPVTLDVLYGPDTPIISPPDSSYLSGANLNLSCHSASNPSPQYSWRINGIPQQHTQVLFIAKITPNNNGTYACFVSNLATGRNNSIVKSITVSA", "experiment": "SE-HPLC analysis of in vitro immunoreactivity with CEA", "assay_type": "binding", "settings": "125I-labeled protein; complexes bound to either one or two CEAs", "description": "Confirmation that BS14HP has the ability to bind CEA bivalently was provided by SE-HPLC analysis of in vitro immunoreactivity. […] (FIG. 6B)."}},
  "data": [
    {"molecule": "B1", "values": [
      {"measurement": "binding to immobilized HSG", "setting": "[1]", "result": "bound tightly"},
      {"measurement": "tumor visibility in images", "setting": "[2]; 1 hr post-peptide administration, hBS14 48-hr clearance then 99mTc-IMP-245", "result": "clearly visible"},
      {"measurement": "location of signal in images", "setting": "[2]; 24 hrs post-peptide administration, imaged for 20 minutes", "result": "only signal detected was located in the tumors"},
      {"measurement": "SE-HPLC peak shifts on mixing with increasing amounts of CEA", "setting": "CEA", "result": "two distinct peak shifts"}
    ]}
  ]
}
